For orientation: EC50 means the concentration that produces a half-maximal response.

Residue numbers refer to the chain shown, from its start.

The target of experiment [1] is T1, human RAMP2 co-expressed with human CRLR on CHO-K1 cells (hCR2-CHOK1) (human, UniProt O60895 43-175; Q16602 23-461).
T1 construct: whole, on cells; The antibodies are directed to RAMP2; also called hCRLR / hRAMP2-expressing CHO-K1 cells; membrane surface RAMP2 protein
The experiment can be described thus: Cell ELISA on fixed hCR2-CHOK1 cells, 1/10 serial dilution from 67 nM, anti-human IgG Fc-HRP, GraphPad Prism 7.

For experiment [2], the target named is T1, human RAMP2 co-expressed with human …. The experiment is described as follows: cell-based or functional assay.
Experiment [3] addresses RAMP2 expressed on the cell surface of HUVEC (human umbilical vein endothelial cells) (human, UniProt O60895 43-175). The experiment is described as follows: cell-based or functional assay.
Experiment [4] has as its target RAMP2 expressed on the cell surface of HUVEC (human umbilical vein endothelial cells) (human) (UniProt O60895). The experiment is described as follows: cell-based or functional assay.
Experiment [5] concerns the target T1, human RAMP2 co-expressed with human …. The experiment is described as follows: Cell ELISA on fixed hCR2-CHOK1 cells, 1/2 serial dilution from 67.5 nM, GraphPad Prism 7.

T1 sequence (O60895 43-175, chain 1 of 2): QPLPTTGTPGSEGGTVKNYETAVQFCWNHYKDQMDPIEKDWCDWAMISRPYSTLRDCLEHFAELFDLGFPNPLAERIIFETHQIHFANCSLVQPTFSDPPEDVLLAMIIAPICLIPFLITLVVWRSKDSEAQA
T1 sequence (Q16602 23-461, chain 2 of 2): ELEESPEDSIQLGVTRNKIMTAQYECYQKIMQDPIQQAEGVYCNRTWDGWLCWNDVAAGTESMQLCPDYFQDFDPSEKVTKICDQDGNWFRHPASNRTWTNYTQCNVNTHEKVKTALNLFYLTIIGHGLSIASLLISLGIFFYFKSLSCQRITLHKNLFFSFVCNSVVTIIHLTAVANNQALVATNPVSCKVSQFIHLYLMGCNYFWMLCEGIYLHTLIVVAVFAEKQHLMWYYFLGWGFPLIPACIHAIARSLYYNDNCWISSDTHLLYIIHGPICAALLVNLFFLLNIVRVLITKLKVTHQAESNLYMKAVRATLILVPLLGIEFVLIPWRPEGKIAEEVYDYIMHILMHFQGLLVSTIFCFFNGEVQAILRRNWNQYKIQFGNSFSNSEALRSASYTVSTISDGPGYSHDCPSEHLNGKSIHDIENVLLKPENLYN
RAMP2 expressed on the cell surface of HUVEC (human umbilical vein endothelial cells) (human), sequence (O60895 43-175): as the sequence (O60895 43-175, chain 1 of 2) above
RAMP2 expressed on the cell surface of HUVEC (human umbilical vein endothelial cells), sequence (O60895 43-175): as the sequence (O60895 43-175, chain 1 of 2) above

B1: h25H4-4F9v3 (antibody, V domains shown)
VH: EVQLVQSGAEVKKPGATVKISCKASGYSFTGYFMNWVKQAPGKGLESIGRNNPYNGDSIYNQKFKGRATLTVDTSTDTAYMELSSLRSEDTAVYYCARLMIFDAYYAMDYWGQGTTVTVSS
VL: DIQMTQSPSSLSASVGDRVTITCRASQDIRNYLNWYQQKPGKAVKLLIYYTSRLHSGVPSRFSGSGSGTDYTLTISSLQPEDIATYFCQQDSKHPWTFGQGTKLEIK
With B1, a half-maximal response in experiment [1] (EC50) required 0.83 nM. The “IC50 values for cAMP inhibition” value in experiment [2] turned out to be 0.26 nM.

B2: h85H7-2B11v3 (antibody, V domains shown)
VH: QVQLVQSGAEVKKPGASVKMSCKASGYSFSGYFMNWVKQAPGQGLEWIGRINPYNGDTFYNQKFKGRATLTVDTSTSTTYMELSSLRSEDTALYYCARLGIYDVYHYVMENWGQGTTVTVSS
VL: B1 VL with H94N
The molecule B2 registered an EC50 in experiment [1] of 0.23 nM. Besides, the “IC50 values for cAMP inhibition” value in experiment [2] stood at 0.08 nM. In addition, the “HUVEC growth inhibition rate (IC50)” value in experiment [3] worked out at 1.5 nM.

B3: h25H4-4F9v8 (antibody, V domains shown)
VH: EVQLVQSGAEVKKPGATVKISCKVSGYTFTGYFMNWVQQAPGKGLEWMGRNNPYNGDSIYAEKFQGRVTITADTSTDTAYMELSSLRSEDTAVYYCARLMIFDAYYAMDYWGQGTTVTVSS
VL: B1 VL with R24Q, V44P, H55E, S56T, Y71F, L73F, F87Y
B3: the half-maximal effective concentration (EC50) in experiment [1] is 3.03 nM. The “IC50 values for cAMP inhibition” value in experiment [2] is 1.07 nM.

B4: h25H4-4F9v6 (antibody, V domains shown)
VH: B3 VH with W47S
VL: B1 VL with R24Q, Y71F, L73F, F87Y
Take B4: in experiment [1], it took 3.19 nM to reach a half-maximal effect (EC50). For the same molecule, the “IC50 values for cAMP inhibition” value in experiment [2] came to 1.35 nM.

B5: h25H4-4F9v5 (antibody, V domains shown)
VH: B3 VH with T28S, W47S, M48I, A61N
VL: B1 VL with R24Q, Y71F, L73F, F87Y
B5 returned a concentration giving a half-maximal response (EC50) in experiment [1] of 2.32 nM. The “IC50 values for cAMP inhibition” value in experiment [2] was determined as 0.5 nM.

B6: h25H4-4F9v4 (antibody, V domains shown)
VH: B3 VH with T28S, W47S, M48I, A61N
VL: B1 VL
In experiment [1], B6 displayed an EC50 of 1.83 nM. Also, the “IC50 values for cAMP inhibition” value in experiment [2] turned out to be 0.17 nM.

B7: 25H4-4F9 antibody (antibody, V domains shown)
VH: EVQLQQSGPELVKPGASVKISCKASGYSFTGYFMNWVKQSQGKSLESIGRNNPYNGDSIYNQKFKGKATLTVDKSSNTAHMELRSLTSEDSAVYYCARLMIFDAYYAMDYWGQGTSVTVSS
VL: DIQMTQTTSSLSASLGDRVTISCRASQDIRNYLNWYQQKPDGTVKLLIYYTSRLHSGVPSRFSGSGSGTDYSLTISNLEQEDIATYFCQQDSKHPWTFGGGTKLEIK
In experiment [4], B7 had an HUVEC proliferation upon AM addition, 10 nM antibody (OD450, % of no antibody) of 30% and an IC50 values for inhibition of HUVEC proliferation of 1.2 nM. This molecule had a concentration giving a half-maximal response (EC50) in experiment [5] of 0.4 nM. In addition, the “IC50 values for cAMP inhibition” value in experiment [2] was 0.15 nM.

B8: 85H7-2B11 antibody (antibody, V domains shown)
VH: EVQLQQSGPELVKPGASVKMSCKASGYSFSGYFMNWVKQSHGKSLEWIGRINPYNGDTFYNQKFKGKATLTVDKSSSTTHMELRSLTSEDSALYYCARLGIYDVYHYVMENWGQGTSVTVSS
VL: B7 VL with H94N
On to B8, for which, in experiment [4], the HUVEC proliferation upon AM addition, 10 nM antibody (OD450, % of no antibody) was 30% and the IC50 values for inhibition of HUVEC proliferation came to 0.8 nM. The molecule further had a half-maximal effective concentration (EC50) in experiment [5] of 0.14 nM. Besides, the “IC50 values for cAMP inhibition” value in experiment [2] is 0.03 nM.

B9: h25H4-4F9v1 (antibody, V domains shown)
VH: B1 VH with A9P, K12V, P41Q, G44S, R67K, T74K, D77N
VL: B1 VL with P8T, V15L, A43T, P80Q
B9 returned an EC50 in experiment [1] of 0.73 nM. Also, the “IC50 values for cAMP inhibition” value in experiment [2] was found to be 0.17 nM. Also, in experiment [3], the “HUVEC growth inhibition rate (IC50)” value came to 16 nM.

B10: h85H7-2B11v2 (antibody, V domains shown)
VH: B2 VH
VL: B1 VL with P8T, V15L, A43T, P80Q, H94N
The molecule B10 yielded an EC50 in experiment [1] of 0.24 nM. The “IC50 values for cAMP inhibition” value in experiment [2] stood at 0.11 nM. Further, the “HUVEC growth inhibition rate (IC50)” value in experiment [3] was found to be 9.5 nM.

B11: h85H7-2B11v1 (antibody, V domains shown)
VH: B2 VH with Q1E, A9P, K12V, P41H, G44S, R67K, T74K
VL: B1 VL with P8T, V15L, A43T, P80Q, H94N
In the case of B11, the EC50 in experiment [1] came to 0.18 nM. Also, the “IC50 values for cAMP inhibition” value in experiment [2] turned out to be 0.07 nM. For the same molecule, the “HUVEC growth inhibition rate (IC50)” value in experiment [3] was determined as 5.1 nM.

B12: h25H4-4F9v2 (antibody, V domains shown)
VH: B1 VH
VL: B1 VL with P8T, V15L, A43T, P80Q
With B12, the EC50 in experiment [1] was 1.05 nM. In addition, in experiment [2], the “IC50 values for cAMP inhibition” value turned out to be 0.14 nM. Further, in experiment [3], the “HUVEC growth inhibition rate (IC50)” value amounted to 10.9 nM.

B13: 33H4-1G3 antibody (antibody, V domains shown)
VH: B8 VH with F59L, S77N, T79I, H80Y
VL: B7 VL with H94N
In experiment [4], B13 registered an HUVEC proliferation upon AM addition, 10 nM antibody (OD450, % of no antibody) of 30% and an IC50 values for inhibition of HUVEC proliferation of 1.6 nM. The molecule also showed a concentration giving a half-maximal response (EC50) in experiment [5] of 0.3 nM. In experiment [2], the “IC50 values for cAMP inhibition” value came out at 0.045 nM.

For the origin of these results see WO2019054460A1 (dated 2019).
